Results on 69 sequences are retold here after the domain aggregation screens of Martell et al. (2025).
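Note: 20 min heating vs room temperature control held 20 min.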

The nature of this series: soluble fraction after stress (log2 fold change); higher = more stays soluble; pooled small domains, quantitative proteomics. Particulars: stress: 75 degC.
Turning to “HMNALNDLESKIFEEVVKAPEIIMNMTIREFASTVHASPTTIVRMTHKLGFSGWNELKTYLQKQKHQIS”, the “soluble fraction (log2)” value is -1.72.

For “HMNALREVNTSILNVRSGAGTNYSKIGSLTQATRVSVISESNGWSKINYNGKVGYVSSQYLS”, the “soluble fraction (log2)” value is -1.53.

As for “HMNAMKPVLTVSLGVHTDSLSRRLNEEGIIYRWQQAASEQLLLVDSESSSERIAELIHDWRLEQSSS”, the “soluble fraction (log2)” value is -0.0158.

On to “HMNANTILNSQRILTQLGFNPGPIDGAFGAKTKGALNAFYTSIGKSYDGLLDSNELVELQKALDVSGLKN”, for which the “soluble fraction (log2)” value was -0.524.

Consider “HMNDADAHASVDAALKHLEALAETTPEVRAALELVRRGPDGRVTVDSFARVAEALREISIAVGAS”, for which the “soluble fraction (log2)” value was found to be 0.024.

For the sequence “HMNDELMEQIDEWHKAEKHQEIIDALEQIPEAERDFETTGFLARAYNNIEEYAKAADLLESVRE”, the “soluble fraction (log2)” value was determined as 0.0973.

In the case of “HMNDGEIAAPVSGTLQSFKVEDGQTVSEGDLVAVMEAMKMETQILATKGGTIRLLVKEGDYLQAGHALMTI”, the “soluble fraction (log2)” value is -0.667.

Consider “HMNDGTIRVGTNVTIKPSAKRWATGQNIYYGVKGKTYKVIQMNGNRLLLDKVISWINKGDVYVPGS”, for which the “soluble fraction (log2)” value was -0.741.

For “HMNDIDRFIEALIEQDTLPGTNSRINEDVISEMKMMTSVEDIKAYAIATVGLTGGQVNNALINSGL”, the “soluble fraction (log2)” value is -0.072.

Consider “HMNDIVKIYTTHRIINIEGLAKNEPIMLYTINGTLIDKSVSSNGSAQLHVKGIGVYLVKWANNIVKVIVPN”, for which the “soluble fraction (log2)” value is -4.81.

In the case of “HMNDLDSLWDIWENLNERGIGDKSEEGQELRDAIREFIDTNELNVRVTRNKTNEDLLTDIEDALEVAKNS”, the “soluble fraction (log2)” value is -0.588.

On to “HMNDLIFSTLAEYDRDTITEIISVVDNTRGIGYEVELVRKDLIAMAAQAEARRDYLPSVIGDVEVFKRNLL”, for which the “soluble fraction (log2)” value was found to be 0.354.

As for “HMNDNQNKQMLWELLKDNRAFDNFDNKDYKTIIHLFNETVNTIDHRTPNLDLIKKNKIFIQDIMQKLSNL”, the “soluble fraction (log2)” value was -1.46.

As for “HMNDSGIIGVVINDHEKYEGHVLEDGFISSSLSALSREIDVAGYFMMVKTVVYEGFFQELKGIGNV”, the “soluble fraction (log2)” value stood at 0.16.

On to “HMNDTNEEAVLSIILKNPQATQGAIAKEVGASLSTVKRIMRNLQKSGKLRREGTNRNGSWVVTGQK”, for which the “soluble fraction (log2)” value was -0.289.

For “HMNDTPPELRAALDLLGLKWPLASVELRARYKDLAKQHHPDATGGDKQAEERLKDINRAYSLLKHRLAKQ”, the “soluble fraction (log2)” value is -0.143.

With “HMNDTVGMNIRRLRKERGMTQGDLADKAGIQRETISKYESNKLTPPSYNLESIEKALKVPAGTLAQ”, the “soluble fraction (log2)” value came out at 0.176.

In the case of “HMNDYIGVDRAKEIALNHARMNESDVQFAKAKLENDDGVVEYEIEFYFGRTEYDYTIDAVSGNIIEYDVEY”, the “soluble fraction (log2)” value was -1.86.

For the sequence “HMNEDDQLLKVLLAEPLRLEELYNLDLKPQGPYNLQTWIMVHLTELERDGLIARFPDGRYGPAR”, the “soluble fraction (log2)” value was -2.03.

Regarding “HMNEFAYLIKISPEHNNNRYYRMVAEGDNFRIEMGRIGASPVQMKRPMYLWNETYQKKLQEGYTDRTSYTS”, the “soluble fraction (log2)” value is -1.85.

For “HMNEIDLEAAKRIALQNAGVESADAAFTKAQLDYDDGVAEYEIEFVAGSTKYEYEISAANGTVLKSSKESV”, the “soluble fraction (log2)” value was -0.0387.

On to “HMNEIEIHINKLFGKISDSKRKQELMQEITQNLNEKVSDLVSQGQTREQAVKKAIEDFGDIDDLKDELDN”, for which the “soluble fraction (log2)” value came out at 0.312.

Turning to “HMNEIYHQIKVDNVSDDDISLFQYSGIEFDHADYRRGEYIEFAISNRDLSILNNLGYEYQVVHH”, the “soluble fraction (log2)” value is -0.872.

For the sequence “HMNEKAALIFNEWSDFVSKDDEANAQIKFDELITLYKKTGYTKIALLEVATKQASNGDIEGALAKYSLLID”, the “soluble fraction (log2)” value came out at 0.128.

Take “HMNEKTGTLTVYSSPGWAKVYIDGEYKGITPVMANLTYGDHYVKLTLDGYDSIGNHIDVNSPDQSYTGKF”: the “soluble fraction (log2)” value is -0.768.

As for “HMNELIGVEQLQDLREAIADHGFAEQRVLNWLYQATKGQVSRLEQLPLPMLTTLHKKLGQWADAEAAASSA”, the “soluble fraction (log2)” value is 0.3.

“HMNELVEATITTQTGRLDKVLTTIFPQYSRSQIQQLLEQGNILVNETLQKGKYKVKAGDKISLTEPAIKE”: the “soluble fraction (log2)” value stood at 0.331.

As for “HMNEMSDTITRLLDAAETGIRLRGYHAVSFRDLAEELGIKSSSVHYYFRQKEDLGLAVVERY”, the “soluble fraction (log2)” value was found to be 0.000622.

With “HMNENDPRVIKTRRLLLDSFVVLVRKKDFTSISVKDITDSAQVNRATFYAHFQDKYDILEYMVID”, the “soluble fraction (log2)” value worked out at 0.0912.

Turning to “HMNENNFIVAMRERLAQFIETSGTSQSRIAKELGVSKSTVSLFLGGTYGGNNQELARNLEQLLSMGAARR”, the “soluble fraction (log2)” value is -1.45.

With “HMNEPMITEVKRINYGSIKEIAKNLDVFKGKNGTVIIDERTNTLILTDLSENIEKMLWSIEITD”, the “soluble fraction (log2)” value was -0.927.

As to “HMNERTKIPLRKIEIGQAVYVDTLEKVGTVIDIQGKQFKVDLAGLPITVAARNLFYPLPQEAKP”, the “soluble fraction (log2)” value is -0.736.

“HMNESADMPDVVNMSLEAAKSQLEGMGLKVKVENVEDDSVEENHVIKTSPVSGEKVKLGTTVTLTVSKGR”: the “soluble fraction (log2)” value was -0.116.

Regarding “HMNESEALIARIENLPPIEDLTEKHAEEVKALMTVYSKLKMSDRILVTNYGVLKKDFDALVKKGFLTNED”, the “soluble fraction (log2)” value was -0.321.

For the sequence “HMNETHANKVYNFLKKKKKPLSAYEILKELASEGISAPTTIYRALNKLVSNGLIHKIESLNAWTV”, the “soluble fraction (log2)” value turned out to be 0.251.

On to “HMNETLKQIRINALQYSEKDMATKLGLPLSEYKEIENDKPLNFTLLIRLSQAVGKTIDDLLNAQ”, for which the “soluble fraction (log2)” value was -0.95.

“HMNEVETWSVQADGATGRIDKWLAEQNEWSRSQVQEWLKAGRVEVDGRVVKPNYKLSGTESIAVHIPEAV”: the “soluble fraction (log2)” value is -0.244.

For the sequence “HMNEWVSVEERLPTDERPVLAFIGYADTMNGFITTSYYFRFDPDPHWLGEGLIPVGLKTLFWMPLPAP”, the “soluble fraction (log2)” value is 0.277.

For the sequence “HMNEYSLVPDIYGMTYDDALSSLRNVGLDGRLALASTNEDLANADTRVVWQSKEAGSIIDKGSNVMFVID”, the “soluble fraction (log2)” value was -0.01.

Turning to “HMNFAERIKELRKEKGITQIDLAEAVGLSKGTVAMWEVDKREANFDTLNKLSDYFQVSIDYLLGRSNDRS”, the “soluble fraction (log2)” value was -0.0785.

For the sequence “HMNFDVETGLPLDSRLVVSGLIQRDGINSLKRYEGMIVYVESEAKNYQLVGGISNTDWAELS”, the “soluble fraction (log2)” value was -1.35.

For the sequence “HMNFGEVLQTKRKSMGLTQEDLADKLFVSSETISNWETNKTTPDIDNVIRISQLFDISLNNLLL”, the “soluble fraction (log2)” value is -0.415.

Turning to “HMNFIPGEKINLKIVQEGKEKNQGVGYLSDGTMVIVENGSQKLGQDVEVVVIKNIQSSAGKIVFGDISK”, the “soluble fraction (log2)” value amounted to 0.158.

Regarding “HMNFSRQREIIYEQVRNFPVHPTAEEVYRALKNDNPNLSLGTVYRNLNQLSEAGMLLKIPIADGSDRFDGR”, the “soluble fraction (log2)” value was -0.655.

For the sequence “HMNFTETENRIYEEILKNVKQHKKKTVVQIAEKVDVAPSYVIKVAKKLGYSGLNEMWYSLSGIY”, the “soluble fraction (log2)” value is -0.916.

For “HMNFTMERLYTKELTSEDIDEIKKELNSMGYTEGVEFNIIKGDKTSFIMAERQLKAKMLSHLSDLGLPRGA”, the “soluble fraction (log2)” value was -0.245.

Turning to “HMNGAAAEQARKQLMTALKASEFIAQDKLDEWLDALALPQEKRSAIIDAVDELDYEEAISELEN”, the “soluble fraction (log2)” value was 0.287.

As for “HMNGDWISARQEYYIRGLWDLASRAKDEASLQAMLQRIAGVTQIEWISKEKATKVILALRDIAKK”, the “soluble fraction (log2)” value was -1.6.

Regarding “HMNGELSQRQWQILRLIAQGLSNEQMARQLFVAPSTIKTHINHLYAKLGVRTRAEAQAIARQKLMA”, the “soluble fraction (log2)” value is -1.23.

On to “HMNGIFEYSDAKKVPSLVEIENAYRRARVNGAEKFAVIINGEYFGYNPQKRGIYKLNDGEYQIL”, for which the “soluble fraction (log2)” value is -0.428.

Regarding “HMNGKPDMTPIPAGSRNNDLHAWAYGRLLNHPDNAEAIRRDLFERGQTSGLKESELETIWQSIRRQLGGD”, the “soluble fraction (log2)” value was determined as 0.44.

In the case of “HMNGKTIEVPDITEKSIAEAQLILNQKKLRYNVVDSTRFDPAYLPFSVLTQEPEAGDEVKKNRTIYITLNP”, the “soluble fraction (log2)” value is -0.183.

Consider “HMNGLDSVLRNWARQTLASGGENLLGDLTDHVTRLIISEALIMTGGNRTRAAELLGLSRPTLLAKMDKLNL”, for which the “soluble fraction (log2)” value is -2.92.

Take “HMNGPTPEEKLAVVNAEFVRQYGDEYEELELEGEELEEYYQKALNKEDFEYDIPHLPGWDEP”: the “soluble fraction (log2)” value was -0.174.

Take “HMNHHEIIMKNIDTLLKEKNISISKLEKSLGISNGYISRLRNGKYNFSLDLLLKLAKKFKISIDYLLTDFD”: the “soluble fraction (log2)” value was -0.317.

“HMNHNPSIARKISREIKRGAPPESLLNLARTVNDSYYRSLSFVSIAYSIKGKKSKELFEEAISNLT”: the “soluble fraction (log2)” value was -0.107.

With “HMNHTIEENDRVLILDPRGKKYLITVTNRVFHTNLGKLDISELIGKNYGDKIKSHMGKNFSILKPNLIDYI”, the “soluble fraction (log2)” value was -0.0314.

Regarding “HMNIAEIGQKVAQQRVALGISQERLAKLSDLSRSTIHHLEHGTLHEIGAAKLFKLLSLLDIQLK”, the “soluble fraction (log2)” value was -2.07.

For the sequence “HMNIDQAFISDLERMIMPDISKYELMDIISIMENSGFTIKVEGTGNEVRQVIKPGSKLKKGQKIKIKL”, the “soluble fraction (log2)” value is -2.03.

“HMNIEIIEVQEESTPSEISKIISTESTKIIEDLLNLGVMASLETPLKNQDIEKLLEGYGYIVDIKP”: the “soluble fraction (log2)” value was found to be 0.0251.

In the case of “HMNIGEKIKKIRTQQNKSTYELADIINKNGFKISQSAISKIENGRKKIDIETLEEIAKALDIEVDLLIT”, the “soluble fraction (log2)” value was -0.153.

“HMNIGIVSLAAVPMRKEPSDRAEMVNQILFGETFDVLEEQEKWTLVQLHHDAYQGWIDRKQWDYASGIAD”: the “soluble fraction (log2)” value is -1.33.

Take “HMNIIHNPSKNFIESDLNDLKEGMEIEHKKFGYGLIKSIDKTQNHQKAVVNFKLVGEKTLLLSFARLRIV”: the “soluble fraction (log2)” value is -3.15.

On to “HMNIILFLDELHRLLSDLPPEERNQAIKYYEDYFEDAGPENEQAILKELGSPQELANQIKATT”, for which the “soluble fraction (log2)” value was -0.94.

As for “HMNIIMLGEFIKEQRIKRKMTQEYLASELGISRPTYSQIELGTRELTIPEARKMAAIFNISLEDFLAEKE”, the “soluble fraction (log2)” value is -2.35.

Take “HMNIMNINQALNVLNLKGTVSKEELAKAYKKMAIKYHPDRNPTGVEMMKVINSAYEFLKGLNLEEIKH”: the “soluble fraction (log2)” value was determined as 0.0759.

In the case of “HMNINLNVGKRLKSIRQNKELSLDEVSNLTNVSKPALAQIERGASSPTINTLWKISKGLKVPLSYFLQE”, the “soluble fraction (log2)” value was -0.713.

“HMNINVRNTGIKAVENNIINLSSDQRTFTWASNDRKLITVPFDENPYSALAAWFKTDEGIEVYQTIEKKL”: the “soluble fraction (log2)” value was -0.0488.

“HMNIWNEWAFKKWIESDEYTGPDMTDFGHRTLVDEEFSKQYKEQMSLFKERVLTDDEFSAKYGDL”: the “soluble fraction (log2)” value was -0.811.
